Experimental findings from the MegaScale stability set (Tsuboyama et al. 2023) are described below.

Sequences and labels used below:
B1: EEHEE_rd4_0363 (parent)
chain: VTVDIKGMEYHFDNPEEAKKFAERMAKELGGELKVENGTLKVE

The data set covers variants of B1. As to the kind of experiment: folding stability dG (cDNA display proteolysis); higher = more stable. The note with it: PBS, room temperature.
Take VTVDIKGMEYHFDNPEEAKKFAERPAKELGGELKVENGTLKVE [M25P]: the “folding stability dG” value was -0.009 kcal/mol.

As for VTVDIKGMEYHFDNPEEAKKFAERTAKELGGELKVENGTLKVE [M25T], the “folding stability dG” value turned out to be 0.78 kcal/mol.

As for VTVDIKGMEYHFDNPEEAKKFAERMAKELGGELKVENGTLKEE [V42E], the “folding stability dG” value is 0.783 kcal/mol.

Regarding VTVDIKGMEYHFDNPEEAKKFAERMAKELGGELKVENGTLKWE [V42W], the “folding stability dG” value was found to be 1.06 kcal/mol.

In the case of VTVDIKGMEYHFDNPEEAKKFAERMAKELGGELKVENGTLKQE [V42Q], the “folding stability dG” value came to 0.74 kcal/mol.

On to VTVDIKGMEYHFDNPEEAKKFAERMAKELGGELKVENGTLKVK [E43K], for which the “folding stability dG” value was 1.89 kcal/mol.

For the variant VTVDIKGMEYHFDNPEEAKKFAERMAKELGGELKVENGRLKVE [T39R], the “folding stability dG” value amounted to 2.17 kcal/mol.

With VTVDIKGMEYHFDNPEEAKKFAERMAKELGGELKVENGKLKVE [T39K], the “folding stability dG” value is 2.43 kcal/mol.

For VHVDIKGMEYHFDNPEEAKKFAERMAKELGGELKVENGTLKVE [T2H], the “folding stability dG” value was 1.26 kcal/mol.

As for VIVDIKGMEYHFDNPEEAKKFAERMAKELGGELKVENGTLKVE [T2I], the “folding stability dG” value amounted to 2.37 kcal/mol.

As to VRVDIKGMEYHFDNPEEAKKFAERMAKELGGELKVENGTLKVE [T2R], the “folding stability dG” value worked out at 1.7 kcal/mol.

With VPVDIKGMEYHFDNPEEAKKFAERMAKELGGELKVENGTLKVE [T2P], the “folding stability dG” value came out at 0.448 kcal/mol.

For the variant VGVDIKGMEYHFDNPEEAKKFAERMAKELGGELKVENGTLKVE [T2G], the “folding stability dG” value was found to be 0.389 kcal/mol.

Regarding VTVDIKGMEYHFDNPEEAKKFAERMAKELPGELKVENGTLKVE [G30P], the “folding stability dG” value was found to be 0.76 kcal/mol.

Take VTVDIKGMEYHFDNPEEAKKFAERMAKELVGELKVENGTLKVE [G30V]: the “folding stability dG” value worked out at 1.01 kcal/mol.

Consider VTVDIKGMEYHFDNPEEAKKFAERMAKELGPELKVENGTLKVE [G31P], for which the “folding stability dG” value was determined as 0.726 kcal/mol.

With VTVDIKGMEYHFDNPEEAKKFAERMAKELGWELKVENGTLKVE [G31W], the “folding stability dG” value was determined as 2.33 kcal/mol.

Consider VTVDIKGMEYHFDNPEEAKKFAERMAKELGRELKVENGTLKVE [G31R], for which the “folding stability dG” value is 0.865 kcal/mol.

As to VTVDIKGMEYHFDNPEEAKKFAERMAFELGGELKVENGTLKVE [K27F], the “folding stability dG” value worked out at 2.35 kcal/mol.

Turning to VTVDIKGMEYHFDNPEEAKKFAERMAIELGGELKVENGTLKVE [K27I], the “folding stability dG” value turned out to be 2.14 kcal/mol.

As to VTVDIKGMEYHFDNPEEAKKFAERMAHELGGELKVENGTLKVE [K27H], the “folding stability dG” value was determined as 1.87 kcal/mol.

For VTVDIKGMEYHFDNPEEAKKMAERMAKELGGELKVENGTLKVE [F21M], the “folding stability dG” value is -0.083 kcal/mol.

For VTVDIKGMEYHFDNPEEAKKNAERMAKELGGELKVENGTLKVE [F21N], the “folding stability dG” value was -0.807 kcal/mol.

VTVDIKGMEYHFDNPEEAKKCAERMAKELGGELKVENGTLKVE [F21C]: the “folding stability dG” value is 0.708 kcal/mol.

For VTVDIKGMEYHFDNPEEAKKEAERMAKELGGELKVENGTLKVE [F21E], the “folding stability dG” value was -0.293 kcal/mol.

VTVDIKGMEYHFDNPEEAKKQAERMAKELGGELKVENGTLKVE [F21Q]: the “folding stability dG” value was -0.803 kcal/mol.

Take VTVDIKGMEYHFDNPEEAKKIAERMAKELGGELKVENGTLKVE [F21I]: the “folding stability dG” value was -0.454 kcal/mol.

In the case of VTVDIKGMEYHFDNPEEAKKWAERMAKELGGELKVENGTLKVE [F21W], the “folding stability dG” value came out at 1.64 kcal/mol.

Take VTVDIKGMEYHFDNPEEAKKFAERMAKELGGELKNENGTLKVE [V35N]: the “folding stability dG” value was determined as 1.73 kcal/mol.

Turning to VTVDIKGMEYHFDNPEEAKKFAERMAKELGGELKHENGTLKVE [V35H], the “folding stability dG” value turned out to be 1.57 kcal/mol.

Regarding VTVDIKGMEYHFDNPEEAKKFAERMAKNLGGELKVENGTLKVE [E28N], the “folding stability dG” value stood at 1.28 kcal/mol.

As for VTVDIKGMEYHGDNPEEAKKFAERMAKELGGELKVENGTLKVE [F12G], the “folding stability dG” value is -0.303 kcal/mol.

VTVDIKGMEYHCDNPEEAKKFAERMAKELGGELKVENGTLKVE [F12C]: the “folding stability dG” value worked out at 1.66 kcal/mol.

For the variant VTVDIKGMEYHFDNPEEAKKFAERMAKELGGETKVENGTLKVE [L33T], the “folding stability dG” value came out at 1.13 kcal/mol.

Turning to VTVDIKGMEYHFDNPEEAKKFAERMAKELGGEWKVENGTLKVE [L33W], the “folding stability dG” value is 1.78 kcal/mol.

VTVDIKGMEYHFDNPEEAKKFAERMAKELGGEKKVENGTLKVE [L33K]: the “folding stability dG” value worked out at 0.659 kcal/mol.

As to VTVDIKGMEYHFDNPEEAKKFAERMAKELGGELKVENGTLVVE [K41V], the “folding stability dG” value came to 2.02 kcal/mol.

Take VTVDIKGMEYHFDNPEEAKKFAERMAKELGGELKVENGTLPVE [K41P]: the “folding stability dG” value turned out to be 0.852 kcal/mol.

Turning to VTVDIKGMEYHFDNPEEAKKFAERMAKELGGELKVENGTLAVE [K41A], the “folding stability dG” value is 1.09 kcal/mol.

On to VTVDIKGMGYHFDNPEEAKKFAERMAKELGGELKVENGTLKVE [E9G], for which the “folding stability dG” value was determined as 1.26 kcal/mol.

Consider VTVDIKGMRYHFDNPEEAKKFAERMAKELGGELKVENGTLKVE [E9R], for which the “folding stability dG” value was determined as 2.9 kcal/mol.

For the variant VTVDIKGMNYHFDNPEEAKKFAERMAKELGGELKVENGTLKVE [E9N], the “folding stability dG” value was 1.71 kcal/mol.

With VTVDIRGMEYHFDNPEEAKKFAERMAKELGGELKVENGTLKVE [K6R], the “folding stability dG” value amounted to 2.17 kcal/mol.

As to VTVDIQGMEYHFDNPEEAKKFAERMAKELGGELKVENGTLKVE [K6Q], the “folding stability dG” value came out at 2.34 kcal/mol.

With VTVDIKGMEYHFDNPEEAKKFAERMKKELGGELKVENGTLKVE [A26K], the “folding stability dG” value was 0.954 kcal/mol.

For VTVDIKGMEYHFDNPEEAKKFAERMMKELGGELKVENGTLKVE [A26M], the “folding stability dG” value worked out at 1.55 kcal/mol.

Turning to VTVDIKGMEYHFDNPEEAKKFAERMEKELGGELKVENGTLKVE [A26E], the “folding stability dG” value came out at 0.931 kcal/mol.

As for VTVDIKGMEYHFDNPEEAKKFAERMQKELGGELKVENGTLKVE [A26Q], the “folding stability dG” value turned out to be 1.3 kcal/mol.

VTVDIKGMEYHFDNPEEAKEFAERMAKELGGELKVENGTLKVE [K20E]: the “folding stability dG” value amounted to 2.08 kcal/mol.

In the case of VTVDIKGMEYHFDNPEEAKDFAERMAKELGGELKVENGTLKVE [K20D], the “folding stability dG” value came out at 1.7 kcal/mol.

For the variant VTVDIKGMEYHFDNPEEAKCFAERMAKELGGELKVENGTLKVE [K20C], the “folding stability dG” value was determined as 2.28 kcal/mol.

VTVDIKGMEYHFDNPEEAKGFAERMAKELGGELKVENGTLKVE [K20G]: the “folding stability dG” value was found to be 1.18 kcal/mol.

With VTVDIKGMEYHFDNPEEAKKFAERMAKELGGELKVENGTRKVE [L40R], the “folding stability dG” value came to 0.347 kcal/mol.

In the case of VTVDIKGMEYHFDNPEEAKKFAERMAKELGGELKVENGTYKVE [L40Y], the “folding stability dG” value is 2.27 kcal/mol.

Turning to VTVDIKGMEYHFDNPEEAKKFAERMAKELGGELKVENGTKKVE [L40K], the “folding stability dG” value was determined as 0.532 kcal/mol.

Turning to VTVDIKGMEYHFDNPEEAKKFAERMAKELGGELKVEFGTLKVE [N37F], the “folding stability dG” value amounted to 1.41 kcal/mol.

As for VTVDIKGMEYHFDNPEEAKKFAERMAKELGGELKVEDGTLKVE [N37D], the “folding stability dG” value was determined as 1.63 kcal/mol.

With VTVDIKGMEYHFDNPEEAKKFAERMAKELGGVLKVENGTLKVE [E32V], the “folding stability dG” value was found to be 2.84 kcal/mol.

As for VTVDIKGMEYHFDNPEEAKKFAERMAKELGGNLKVENGTLKVE [E32N], the “folding stability dG” value came to 2.21 kcal/mol.
